These are literature values, as cited in PMC9805914.

The target of this data set is SARS-CoV-2 spike RGD motif RGD motif (Severe acute respiratory syndrome coronavirus 2) (UniProt P0DTC2).

integrin αvβ8 (from UniProt P06756): the dissociation constant Kd was 4 nM.

Broadly, the Kd is the equilibrium constant for the complex coming apart.
